Laboratory results taken from patent publication US20160202245A1 (MERZ PHARMA, published 2016).
Changes are numbered by the printed parent chain.

B1: mouse monoclonal antibody 20-2-5 (antibody, V domains shown)
VH: EVNLVESGGDLVKPGGSLKLSCAVSGFTFSGYAMSWVRQTPEKRLEWVASIATNGSTYYPDTVKGRFTIFRDNARNILYLQMSSLRSEDTAIYYCTRLRGFDNWGQGTTLTVSS
VL: DVLMTQIPLSLPVSLGDQASISCRSSQNIVHSNGNTYLEWYLQKSGQSPKLLIYKVFKRLSGVPDRFSGSGSGTDFTLRISRVEAEDLGVYYCFQGSHVPYTFGGGTKLEIK
B2: mouse monoclonal antibody 14-12-1 (antibody, V domains shown)
VH: EVKLVESGGDLVKPGGSLKLSCAASGFTLSDYAMSWVRQSPEERLEWVASISTNGSTYYPDSVKGRFTISRDNARNILSLQMSSLRSEDTAIYYCTRLRGFDNWGQGTLLTVSS
VL: B1 VL with I7T, I53M, F57S, S70R, R79K
B3: mouse monoclonal antibody 6-3-8 (antibody, V domains shown)
VH: EVKLVEFGGGLVEPRGSLKLSCAASGFTFSTYAMSWVRQTPEKRLEWVASIASNGSTYYPDSVRGRFTISRDNARNILYLQMSSLRSEDTAMYYCSRLRGFDYWGQGSTLTVSS
VL: B1 VL with N28S, S45P, K50S, D75E, R79K, S81N
B4: mouse monoclonal antibody 16-5-4 (antibody, V domains shown)
VH: EVKLVESGGDLVKPGGSLKLSCAASGFTFNTYAMSWVRQTPEKRLEWVASISSNGSTYHPESVKGRFTISRDIARNILNLQMSSLRSEDTAIYYCSRLRGFDYWGQGTTLTVSS
VL: B1 VL with I7T, N28S, S45P, L51P, L60F, R79K
B5: mouse monoclonal antibody 18-3-3 (antibody, V domains shown)
VH: EVKLVESGGGLVKPGGSLKLSCAASGFTFRSYAVSWVRQTPEKRLEWVASISTNGSTYYPDSMKGRFTISRDTARNILYLEMNSLRSEDTAMYYCARLRGFDYWGQGTPLTVSS
VL: B1 VL with I7T, N28S, S45P, F57S, L60F, R79K, S81T
B6: mouse monoclonal antibody 1-10-4 (antibody, V domains shown)
VH: EVKLVESGGDLVKPGGSLKLSCAVSGFSLNTYAMSWVRQTPEQRLEWVASISTNGSTYHSDSVKGRFTISRYNARNILYLQMSSLRSEDSAIYYCTRLRGFDYWGQGTTLTVSS
VL: B1 VL with V2I, I7T, P12S, S45P, L51P, V56L, F57S, L60F, D75Y, R79K
B7: mouse monoclonal antibody 5-10-5 (antibody, V domains shown)
VH: DVQLQESGPGLVKPSQSLSLTCTVTGFSITSDYAWNWIRQFPGNKLEWMGYISYKYGTRYNPSLKGRISITRDTSKNQFFLQLNSLTTEDTAIYYCARRGTDGYGFAYWGQGTLVTVSA
VL: DIVLTQSPASLGVSLGQRATISCRASESVSSSGYSYIHWYQQRPGQPPKLLIFLASNLESGVPARFSGSGSGTDFTLNIHPVEEEDAATYYCQHSRELPLTFGAGTKLELK

Biological target: T1, non-cleaved SNAP-25206 (UniProt P60880 1-206)
T1 construct: range 1-206
Assay: ELISA and Western blots

Row | Binder | binding result
1 | B1 | no binding
2 | B2 | no binding
3 | B3 | no binding
4 | B4 | no binding
5 | B5 | no binding
6 | B6 | no binding
7 | B7 | no binding
